Here are results for one molecule from US20140315822A1.

Experiment [1] addresses T1, PDZ domain of the human MAST2 protein (human), Q6P0Q8.
T1 chain: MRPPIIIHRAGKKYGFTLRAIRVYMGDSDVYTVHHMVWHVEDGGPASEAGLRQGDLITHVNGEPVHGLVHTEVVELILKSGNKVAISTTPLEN
Description: ITC, 298 K, MAST2-PDZ titrated with peptide. For orientation: Isothermal titration calorimetry measures the heat released or taken up as one component is titrated into another.

In experiment [2] the target is T1, PDZ domain of the human MAST2 protein ….

In experiment [1], SWEVHGQQTRL (modifications not checked) [454 (Neurovita 3)] returned a TΔS (entropy) of 1110, a n (stoechiometry) of 1.01 and a ΔH (enthalpy) of -8720. For the same molecule, the gain of affinity as compared to Neurovita1 in experiment [2] turned out to be 20 fold.
